The values that follow come from article PMC3079584, “A Cytoplasmic Complex Mediates Specific mRNA Recognition and Localization in Yeast”.

Data set [1] deals with She2p;She3p (R341E) (Saccharomyces cerevisiae;Saccharomyces …, UniProt P36068;P38272 1-246;1-425, |R341E). The data set is described as follows: EMSA; synergism +++; EMSA: 20 mM HEPES pH 7.8, 200 mM NaCl, 2 mM MgCl2, 2 mM DTT, 4% glycerol, 30 or 100 ug/ml yeast tRNA, 5 nM RNA, 20 C; filter binding: 20 mM HEPES pH 7.4-7.5 (7.9 with She3p), 150 mM NaCl, 2 mM MgCl2, 2 mM DTT, 30 ug/ml yeast tRNA, 0.5 nM RNA; pull-down: HNMD buffer, 4 C. The following applies: protein: recombinant;recombinant; tags: GST tag (PreScission-cleaved);C-terminal His6; chain copies: 4;2; label: 32P; stem-loop. (In EMSA bound probe runs differently from free probe, usually more slowly.)
She2p;She3p (R341E), sequence (P36068 whole entry, stated change not applied, one chain of several): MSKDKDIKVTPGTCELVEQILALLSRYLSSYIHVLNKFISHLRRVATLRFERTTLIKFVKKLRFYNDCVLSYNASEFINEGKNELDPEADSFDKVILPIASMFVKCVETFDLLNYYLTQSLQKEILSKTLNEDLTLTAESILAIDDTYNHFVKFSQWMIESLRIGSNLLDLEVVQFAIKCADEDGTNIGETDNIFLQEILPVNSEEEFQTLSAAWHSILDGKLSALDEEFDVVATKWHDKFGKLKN

Data set [2] addresses She2p (E183A D184A G185A);She3p (Saccharomyces cerevisiae;Saccharomyces …, UniProt P36068;P38272 1-246;1-425, E183A;D184A;G185A|). Described as above. The following applies: protein: recombinant;recombinant; tags: GST tag (PreScission-cleaved);C-terminal His6; chain copies: 4;2; label: 32P; stem-loop.
Data set [3] addresses She2p;She3p (S343E S361E) (Saccharomyces cerevisiae;Saccharomyces …, UniProt P36068;P38272 1-246;1-425, |S343E;S361E). The data set is described as above. The following applies: protein: recombinant;recombinant; tags: GST tag (PreScission-cleaved);C-terminal His6; chain copies: 4;2; label: 32P; stem-loop.
For data set [4], the target named is She2p (T191A D192A);She3p (Saccharomyces cerevisiae;Saccharomyces …, UniProt P36068;P38272 1-246;1-425, T191A;D192A|). The data set is described as above. The following applies: protein: recombinant;recombinant; tags: GST tag (PreScission-cleaved);C-terminal His6; chain copies: 4;2; label: 32P; stem-loop.
She2p (T191A D192A);She3p, sequence (P36068 whole entry T191A/D192A, one chain of several): as the sequence (P36068 whole entry, stated change not applied, one chain of several) above, with T191A, D192A counted along it
Data set [5] concerns the target T1, She3p (S348E) (Saccharomyces cerevisiae, UniProt P38272 1-425, S348E).
T1 sequence: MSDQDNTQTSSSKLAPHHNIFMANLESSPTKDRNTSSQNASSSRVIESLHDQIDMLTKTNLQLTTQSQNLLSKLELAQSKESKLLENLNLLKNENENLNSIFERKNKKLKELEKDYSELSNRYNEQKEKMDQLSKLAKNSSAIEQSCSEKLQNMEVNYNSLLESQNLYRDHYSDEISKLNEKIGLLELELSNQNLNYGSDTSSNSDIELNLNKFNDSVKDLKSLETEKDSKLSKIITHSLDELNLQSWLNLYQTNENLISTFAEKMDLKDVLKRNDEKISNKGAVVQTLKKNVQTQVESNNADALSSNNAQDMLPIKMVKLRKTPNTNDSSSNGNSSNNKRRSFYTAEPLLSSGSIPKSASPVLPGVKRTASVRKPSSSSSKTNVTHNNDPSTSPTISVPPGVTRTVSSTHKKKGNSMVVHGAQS
In words: EMSA; +++; EMSA: 20 mM HEPES pH 7.8, 200 mM NaCl, 2 mM MgCl2, 2 mM DTT, 4% glycerol, 30 or 100 ug/ml yeast tRNA, 5 nM RNA, 20 C; filter binding: 20 mM HEPES pH 7.4-7.5 (7.9 with She3p), 150 mM NaCl, 2 mM MgCl2, 2 mM DTT, 30 ug/ml yeast tRNA, 0.5 nM RNA; pull-down: HNMD buffer, 4 C. The following applies: protein: recombinant; tags: C-terminal His6; label: 32P; stem-loop.

Data set [6] concerns the target She2p (ΔhE);She3p (Saccharomyces cerevisiae;Saccharomyces …, UniProt P36068;P38272 1-246;1-425, del174-183|). In words: EMSA; no mobility shift; EMSA: 20 mM HEPES pH 7.8, 200 mM NaCl, 2 mM MgCl2, 2 mM DTT, 4% glycerol, 30 or 100 ug/ml yeast tRNA, 5 nM RNA, 20 C; filter binding: 20 mM HEPES pH 7.4-7.5 (7.9 with She3p), 150 mM NaCl, 2 mM MgCl2, 2 mM DTT, 30 ug/ml yeast tRNA, 0.5 nM RNA; pull-down: HNMD buffer, 4 C. The following applies: protein: recombinant;recombinant; tags: GST tag (PreScission-cleaved);C-terminal His6; chain copies: 4;2; label: 32P; stem-loop.

For data set [7], the target named is She2p (ΔC);She3p (Saccharomyces cerevisiae;Saccharomyces …, UniProt P36068;P38272 1-240;1-425, |). In words: EMSA; She3p 25 nM; at least 25 nM She2p(ΔC) required; EMSA: 20 mM HEPES pH 7.8, 200 mM NaCl, 2 mM MgCl2, 2 mM DTT, 4% glycerol, 30 or 100 ug/ml yeast tRNA, 5 nM RNA, 20 C; filter binding: 20 mM HEPES pH 7.4-7.5 (7.9 with She3p), 150 mM NaCl, 2 mM MgCl2, 2 mM DTT, 30 ug/ml yeast tRNA, 0.5 nM RNA; pull-down: HNMD buffer, 4 C. The following applies: protein: recombinant;recombinant; tags: GST tag (PreScission-cleaved);C-terminal His6; label: 32P; stem-loop.
She2p (ΔC);She3p, sequence (P36068 1-240, stated change not applied, one chain of several): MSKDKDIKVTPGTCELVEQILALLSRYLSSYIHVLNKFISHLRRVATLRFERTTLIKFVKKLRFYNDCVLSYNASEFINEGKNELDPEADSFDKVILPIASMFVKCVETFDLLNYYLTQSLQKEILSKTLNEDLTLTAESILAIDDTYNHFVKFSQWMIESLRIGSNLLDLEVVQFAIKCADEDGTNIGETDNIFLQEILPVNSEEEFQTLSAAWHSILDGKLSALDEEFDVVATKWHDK

She2p (ΔhE);She3p, sequence (P36068 other isoform, or with tags, fused parts or gaps del174-183| | mutant): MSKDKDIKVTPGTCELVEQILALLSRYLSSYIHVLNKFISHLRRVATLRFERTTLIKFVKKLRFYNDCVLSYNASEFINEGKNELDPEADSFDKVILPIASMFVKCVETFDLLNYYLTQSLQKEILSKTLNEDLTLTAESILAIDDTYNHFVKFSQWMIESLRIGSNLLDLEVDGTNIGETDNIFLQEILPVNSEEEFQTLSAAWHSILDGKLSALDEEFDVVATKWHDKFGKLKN
She2p (E183A D184A G185A);She3p, sequence (P36068 whole entry E183A/D184A/G185A, one chain of several): as the sequence (P36068 whole entry, stated change not applied, one chain of several) above, with E183A, D184A, G185A counted along it
She2p;She3p (S343E S361E), sequence (P36068 whole entry, stated change not applied, one chain of several): as the sequence (P36068 whole entry, stated change not applied, one chain of several) above

B1: ASH1 E3-118 (structured_RNA)
RNA: GAGACAGUAGAGAAUUGAUACAUGGAUAACUGAAUCUCUUUCAACUAAUAAGAGACAUUAUCACGAAACAAUUGUACAUUUCUCUCCUUGUCUGUGCUAAAUAAACUACAAAUAAAAA
Turning to B1, the binding result in data set [1] was “binds”; in data set [2], “binds”; in data set [3] it was “binds”; in data set [4], “binds”; in data set [5], “binds”; in data set [6], “no binding”. The binding signal in data set [7] is around 5 fold reduced.
